From publication PMC9482650, “Quantitative fragmentomics allow affinity mapping of interactomes” (Nature Communications, 2022)
Values belong to the binder of their own block, whether it stands above or below them.

Tests used:
Experiment in all cases: holdup assay
Set-up in all cases: key: below the threshold = too weak to quantify, mostly under pKd 3.1 to 4
[1] = target: GRID2IP_1, A4D2P6
[2] = target: T1, LIN7C, Q9NUP9
T1 sequence (Q9NUP9 88-185, limits assumed, looked up): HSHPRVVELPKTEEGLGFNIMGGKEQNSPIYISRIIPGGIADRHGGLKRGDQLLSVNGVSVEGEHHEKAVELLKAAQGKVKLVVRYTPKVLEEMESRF

[3] = target: T2, SNTG1, Q9NSN8
T2 sequence (Q9NSN8 52-150, limits assumed, looked up): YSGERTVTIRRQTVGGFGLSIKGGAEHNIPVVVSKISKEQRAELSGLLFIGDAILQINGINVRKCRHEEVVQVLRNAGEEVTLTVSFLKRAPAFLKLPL

[4] = target: GRIP2_6, Q9C0E4
[5] = target: FRMPD4, Q14CM0
[6] = target: TJP1_3, Q07157
[7] = target: GIPC2, Q8TF65
[8] = target: SCRIB_1, Q14160
[9] = target: DLG5_1, Q8TDM6
[10] = target: T3, APBA3_1, O96018
T3 sequence (O96018 389-490, limits assumed, looked up): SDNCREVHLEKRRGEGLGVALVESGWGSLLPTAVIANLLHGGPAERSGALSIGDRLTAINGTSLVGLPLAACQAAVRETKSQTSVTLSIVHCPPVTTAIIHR

[11] = target: MAGI2_2, Q86UL8
[12] = target: DLG2_2, Q15700
[13] = target: T4, RAPGEF6, Q8TEU7
T4 sequence (Q8TEU7 525-625, limits assumed, looked up): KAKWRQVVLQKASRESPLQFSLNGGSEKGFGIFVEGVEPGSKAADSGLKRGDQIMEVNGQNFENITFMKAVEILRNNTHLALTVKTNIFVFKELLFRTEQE

[14] = target: T5, MPDZ_12, O75970
T5 sequence (O75970 1857-1958, limits assumed, looked up): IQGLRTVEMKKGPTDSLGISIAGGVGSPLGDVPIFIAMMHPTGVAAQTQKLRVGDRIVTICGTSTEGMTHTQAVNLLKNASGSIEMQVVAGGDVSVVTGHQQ

[15] = target: T6, PARD3B_1, Q8TEW8
T6 sequence (Q8TEW8 196-299, limits assumed, looked up): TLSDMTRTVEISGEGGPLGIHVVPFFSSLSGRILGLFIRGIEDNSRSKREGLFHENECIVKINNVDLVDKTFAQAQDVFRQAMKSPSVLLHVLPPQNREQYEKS

[16] = target: MAGI2_3, Q86UL8
[17] = target: T7, MPDZ_10, O75970
T7 sequence (O75970 1624-1722, limits assumed, looked up): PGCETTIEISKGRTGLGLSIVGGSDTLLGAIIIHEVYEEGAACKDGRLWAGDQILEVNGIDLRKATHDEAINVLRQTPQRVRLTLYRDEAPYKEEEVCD

[18] = target: T8, DFNB31_3, Q9P202
T8 sequence (Q9P202 811-907, limits assumed, looked up): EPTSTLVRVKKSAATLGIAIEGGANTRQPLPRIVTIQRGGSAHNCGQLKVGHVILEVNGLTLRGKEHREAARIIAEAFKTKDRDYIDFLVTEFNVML

[19] = target: CASK, O14936
[20] = target: GOPC, Q9HD26
[21] = target: FRMPD2_2, Q68DX3
[22] = target: T9, SNTA1, Q13424
T9 sequence (Q13424 82-180, limits assumed, looked up): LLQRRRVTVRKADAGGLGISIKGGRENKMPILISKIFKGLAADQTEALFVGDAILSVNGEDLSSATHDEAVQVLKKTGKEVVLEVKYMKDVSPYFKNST

[23] = target: LDB3, O75112
[24] = target: NHERF2_2, Q15599
[25] = target: DLG2_3, Q15700
[26] = target: Inadl_1, Q8NI35
[27] = target: IL16_4, Q14005
[28] = target: T10, NHERF3_1, Q5T2W1
T10 sequence (Q5T2W1 4-100, limits assumed, looked up): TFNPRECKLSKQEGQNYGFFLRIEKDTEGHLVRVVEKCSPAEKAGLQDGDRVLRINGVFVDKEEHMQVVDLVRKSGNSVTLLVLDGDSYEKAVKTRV

[29] = plain residues with an end cap or a label only (N-terminal biotin on a linker: ahx)
[30] = plain residues with an end cap or a label only (N-terminal biotin on a linker: ado-ado)

Sequence of IL16_4, Q14005 (Q14005 1229-1329): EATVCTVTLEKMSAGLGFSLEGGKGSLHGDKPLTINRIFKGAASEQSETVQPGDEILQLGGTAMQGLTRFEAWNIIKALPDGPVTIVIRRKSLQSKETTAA
Sequence of LDB3, O75112 (O75112 1-94): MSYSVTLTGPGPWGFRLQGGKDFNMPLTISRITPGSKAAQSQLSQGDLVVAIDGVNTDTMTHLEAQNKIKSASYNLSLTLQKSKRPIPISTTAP
Sequence of GIPC2, Q8TF65 (Q8TF65 112-203): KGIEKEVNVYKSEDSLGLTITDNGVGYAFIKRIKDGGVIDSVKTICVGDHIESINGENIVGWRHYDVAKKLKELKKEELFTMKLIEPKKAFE
Sequence of Inadl_1, Q8NI35 (Q8NI35 113-229): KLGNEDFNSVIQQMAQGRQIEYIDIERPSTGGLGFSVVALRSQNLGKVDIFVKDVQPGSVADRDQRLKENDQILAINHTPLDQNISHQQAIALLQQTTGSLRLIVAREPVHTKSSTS
Sequence of SCRIB_1, Q14160 (Q14160 718-814): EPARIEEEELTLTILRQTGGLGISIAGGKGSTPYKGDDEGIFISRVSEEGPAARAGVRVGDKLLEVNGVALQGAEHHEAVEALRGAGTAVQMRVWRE
Sequence of DLG5_1, Q8TDM6 (Q8TDM6 617-713): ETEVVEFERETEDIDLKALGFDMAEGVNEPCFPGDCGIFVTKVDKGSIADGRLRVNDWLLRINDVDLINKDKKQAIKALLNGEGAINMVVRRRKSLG
Sequence of FRMPD2_2, Q68DX3 (Q68DX3 944-1038): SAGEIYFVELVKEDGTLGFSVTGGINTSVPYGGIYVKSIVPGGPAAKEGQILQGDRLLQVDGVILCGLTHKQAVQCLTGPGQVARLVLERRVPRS
Sequence of FRMPD4, Q14CM0 (Q14CM0 67-160): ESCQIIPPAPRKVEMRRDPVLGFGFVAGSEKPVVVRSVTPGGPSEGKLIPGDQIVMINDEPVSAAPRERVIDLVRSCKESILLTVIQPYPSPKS
Sequence of NHERF2_2, Q15599 (Q15599 142-238): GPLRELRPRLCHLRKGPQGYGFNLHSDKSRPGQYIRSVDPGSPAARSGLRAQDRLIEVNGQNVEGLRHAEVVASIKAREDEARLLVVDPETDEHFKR
Sequence of GRID2IP_1, A4D2P6 (A4D2P6 1-87): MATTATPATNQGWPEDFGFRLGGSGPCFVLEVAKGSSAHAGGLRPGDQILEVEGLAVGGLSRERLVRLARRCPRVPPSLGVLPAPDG
Sequence of MAGI2_2, Q86UL8 (Q86UL8 410-522): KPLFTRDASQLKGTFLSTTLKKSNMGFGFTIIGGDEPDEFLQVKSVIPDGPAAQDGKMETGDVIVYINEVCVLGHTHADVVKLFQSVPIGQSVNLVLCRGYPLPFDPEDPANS
Sequence of TJP1_3, Q07157 (Q07157 416-512): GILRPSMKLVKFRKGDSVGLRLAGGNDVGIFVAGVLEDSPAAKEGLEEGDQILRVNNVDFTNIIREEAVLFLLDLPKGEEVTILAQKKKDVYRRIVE
Sequence of CASK, O14936 (O14936 487-570): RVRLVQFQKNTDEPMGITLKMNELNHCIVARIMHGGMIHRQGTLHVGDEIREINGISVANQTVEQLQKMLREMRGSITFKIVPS
Sequence of GRIP2_6, Q9C0E4 (Q9C0E4 648-740): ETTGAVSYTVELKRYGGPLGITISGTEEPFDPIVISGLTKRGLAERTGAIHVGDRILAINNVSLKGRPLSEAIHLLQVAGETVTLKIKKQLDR
Sequence of MAGI2_3, Q86UL8 (Q86UL8 600-682): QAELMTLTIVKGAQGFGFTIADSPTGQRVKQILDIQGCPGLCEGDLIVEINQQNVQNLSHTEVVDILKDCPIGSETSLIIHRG

- pKd [1, 29]: below the threshold
- pKd [2, 29]: below the threshold
- pKd [3, 29]: below the threshold
- pKd [4, 29]: below the threshold
- pKd [5, 29]: 3.55
- pKd [6, 29]: below the threshold
- pKd [7, 29]: below the threshold
- pKd [8, 29]: below the threshold
- pKd [9, 29]: below the threshold
- pKd [10, 29]: below the threshold
- pKd [11, 29]: below the threshold
- pKd [12, 29]: below the threshold
- pKd [13, 29]: below the threshold
- pKd [14, 29]: below the threshold
- pKd [15, 29]: below the threshold
- pKd [16, 29]: below the threshold
- pKd [17, 29]: below the threshold
- pKd [18, 29]: below the threshold
- pKd [19, 29]: below the threshold
- pKd [20, 29]: below the threshold
- pKd [21, 29]: below the threshold
- pKd [22, 29]: below the threshold
- pKd [23, 29]: below the threshold
- pKd [24, 29]: 3.55
- pKd [25, 29]: below the threshold
- pKd [26, 29]: below the threshold
- pKd [27, 29]: below the threshold
- pKd [28, 29]: below the threshold
Binder: EKQAKGDTEF [CACYBP, Q9HB71]

- pKd [1, 30]: below the threshold
- pKd [2, 30]: below the threshold
- pKd [3, 30]: below the threshold
- pKd [4, 30]: below the threshold
- pKd [5, 30]: 4.07
- pKd [6, 30]: below the threshold
- pKd [7, 30]: below the threshold
- pKd [8, 30]: 4.1
- pKd [9, 30]: below the threshold
- pKd [10, 30]: below the threshold
- pKd [11, 30]: 4.04
- pKd [12, 30]: 4.01
- pKd [13, 30]: below the threshold
- pKd [14, 30]: 3.66
- pKd [15, 30]: 4.03
- pKd [16, 30]: 4.46
- pKd [17, 30]: below the threshold
- pKd [18, 30]: below the threshold
- pKd [19, 30]: below the threshold
- pKd [20, 30]: 4.3
- pKd [21, 30]: 4
- pKd [22, 30]: 4.39
- pKd [23, 30]: below the threshold
- pKd [24, 30]: 4.45
- pKd [25, 30]: 3.54
- pKd [26, 30]: below the threshold
- pKd [27, 30]: 3.6
- pKd [28, 30]: 4.33
Binder: RDPPAEWTRV [PTPN18, Q99952]

- pKd [1, 30]: below the threshold
- pKd [2, 30]: 4.26
- pKd [3, 30]: 4.13
- pKd [4, 30]: below the threshold
- pKd [5, 30]: 3.51
- pKd [6, 30]: below the threshold
- pKd [7, 30]: 3.49
- pKd [8, 30]: 3.99
- pKd [9, 30]: below the threshold
- pKd [10, 30]: below the threshold
- pKd [11, 30]: 3.74
- pKd [12, 30]: 4.45
- pKd [13, 30]: below the threshold
- pKd [14, 30]: below the threshold
- pKd [15, 30]: below the threshold
- pKd [16, 30]: below the threshold
- pKd [17, 30]: 3.49
- pKd [18, 30]: below the threshold
- pKd [19, 30]: below the threshold
- pKd [20, 30]: 3.52
- pKd [21, 30]: 3.54
- pKd [22, 30]: 4.02
- pKd [23, 30]: below the threshold
- pKd [24, 30]: 3.48
- pKd [25, 30]: 3.9
- pKd [26, 30]: below the threshold
- pKd [27, 30]: below the threshold
- pKd [28, 30]: 3.7
Binder: VLYPREGTEV [FOXI1, Q12951]
